# Data reported in US20230272045A1.
# Tests used:
# [1] = molecular target: human plasma fibronectin (human) (UniProt P02751); assay: ELISA
# human tenascin C (human) = human tenascin C (human) (UniProt P24821); assay: ELISA
# [2] = molecular target: human vitronectin (human) (UniProt P04004); assay: ELISA
# fibrin matrix = fibrin matrix (UniProt P02671); assay: cell-based or functional assay
# Sequence of fibrin matrix (P02671 other isoform, or with tags, fused parts or gaps, chain 1 of 3): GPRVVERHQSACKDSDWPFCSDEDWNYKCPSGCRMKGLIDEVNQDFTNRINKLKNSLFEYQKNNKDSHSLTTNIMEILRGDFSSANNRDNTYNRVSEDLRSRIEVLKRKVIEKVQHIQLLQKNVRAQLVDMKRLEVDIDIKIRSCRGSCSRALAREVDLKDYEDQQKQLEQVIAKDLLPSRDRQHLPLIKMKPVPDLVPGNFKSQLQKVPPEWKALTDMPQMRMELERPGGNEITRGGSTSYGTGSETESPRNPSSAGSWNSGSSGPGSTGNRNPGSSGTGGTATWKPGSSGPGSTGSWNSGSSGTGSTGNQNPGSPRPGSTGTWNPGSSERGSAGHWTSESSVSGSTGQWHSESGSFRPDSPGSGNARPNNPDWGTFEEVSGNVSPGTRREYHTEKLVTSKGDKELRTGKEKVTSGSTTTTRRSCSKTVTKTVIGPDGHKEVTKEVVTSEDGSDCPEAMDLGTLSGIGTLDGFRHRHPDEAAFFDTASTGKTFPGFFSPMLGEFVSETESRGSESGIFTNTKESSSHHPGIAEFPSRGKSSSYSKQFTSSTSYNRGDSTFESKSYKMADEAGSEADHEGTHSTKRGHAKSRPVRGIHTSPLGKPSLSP
# Sequence of fibrin matrix (P02675 45-491, chain 2 of 3, further chain): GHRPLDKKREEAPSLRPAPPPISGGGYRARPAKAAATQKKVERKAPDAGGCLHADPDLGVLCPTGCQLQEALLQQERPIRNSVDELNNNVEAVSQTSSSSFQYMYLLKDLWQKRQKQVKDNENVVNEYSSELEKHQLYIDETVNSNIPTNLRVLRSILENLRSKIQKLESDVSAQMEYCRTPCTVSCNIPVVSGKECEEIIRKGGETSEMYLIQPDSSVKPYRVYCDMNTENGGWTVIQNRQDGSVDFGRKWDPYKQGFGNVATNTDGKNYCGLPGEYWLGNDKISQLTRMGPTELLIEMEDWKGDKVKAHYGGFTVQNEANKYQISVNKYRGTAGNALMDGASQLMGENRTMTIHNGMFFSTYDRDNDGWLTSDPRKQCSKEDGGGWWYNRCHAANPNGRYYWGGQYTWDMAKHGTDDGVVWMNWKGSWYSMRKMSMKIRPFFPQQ
# Sequence of fibrin matrix (P02679 other isoform, or with tags, fused parts or gaps, chain 3 of 3, further chain): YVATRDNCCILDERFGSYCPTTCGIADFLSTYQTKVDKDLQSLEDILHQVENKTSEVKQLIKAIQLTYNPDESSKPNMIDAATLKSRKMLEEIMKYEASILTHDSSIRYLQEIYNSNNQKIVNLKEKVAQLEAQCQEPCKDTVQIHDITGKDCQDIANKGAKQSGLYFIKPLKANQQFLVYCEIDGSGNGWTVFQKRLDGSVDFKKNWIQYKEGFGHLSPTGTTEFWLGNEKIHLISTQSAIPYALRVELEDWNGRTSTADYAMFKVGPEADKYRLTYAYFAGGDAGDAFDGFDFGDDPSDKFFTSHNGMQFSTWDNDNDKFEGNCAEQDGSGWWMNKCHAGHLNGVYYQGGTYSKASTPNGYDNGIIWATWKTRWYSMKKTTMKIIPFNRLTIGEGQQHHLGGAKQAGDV
# Sequence of human vitronectin (human) (P04004 20-478): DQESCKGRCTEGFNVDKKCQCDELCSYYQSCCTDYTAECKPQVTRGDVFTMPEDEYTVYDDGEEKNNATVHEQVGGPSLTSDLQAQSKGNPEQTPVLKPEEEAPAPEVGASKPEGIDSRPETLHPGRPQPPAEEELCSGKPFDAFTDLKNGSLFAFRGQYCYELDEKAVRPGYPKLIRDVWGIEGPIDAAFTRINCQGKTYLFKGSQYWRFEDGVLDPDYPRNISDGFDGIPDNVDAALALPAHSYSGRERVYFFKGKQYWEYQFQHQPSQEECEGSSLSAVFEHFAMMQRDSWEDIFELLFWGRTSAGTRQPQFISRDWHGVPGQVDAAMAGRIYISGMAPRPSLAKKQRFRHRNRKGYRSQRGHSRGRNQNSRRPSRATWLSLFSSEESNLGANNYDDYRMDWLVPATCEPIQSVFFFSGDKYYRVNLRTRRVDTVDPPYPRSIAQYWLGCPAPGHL
# Sequence of human plasma fibronectin (human) (P02751 other isoform, or with tags, fused parts or gaps): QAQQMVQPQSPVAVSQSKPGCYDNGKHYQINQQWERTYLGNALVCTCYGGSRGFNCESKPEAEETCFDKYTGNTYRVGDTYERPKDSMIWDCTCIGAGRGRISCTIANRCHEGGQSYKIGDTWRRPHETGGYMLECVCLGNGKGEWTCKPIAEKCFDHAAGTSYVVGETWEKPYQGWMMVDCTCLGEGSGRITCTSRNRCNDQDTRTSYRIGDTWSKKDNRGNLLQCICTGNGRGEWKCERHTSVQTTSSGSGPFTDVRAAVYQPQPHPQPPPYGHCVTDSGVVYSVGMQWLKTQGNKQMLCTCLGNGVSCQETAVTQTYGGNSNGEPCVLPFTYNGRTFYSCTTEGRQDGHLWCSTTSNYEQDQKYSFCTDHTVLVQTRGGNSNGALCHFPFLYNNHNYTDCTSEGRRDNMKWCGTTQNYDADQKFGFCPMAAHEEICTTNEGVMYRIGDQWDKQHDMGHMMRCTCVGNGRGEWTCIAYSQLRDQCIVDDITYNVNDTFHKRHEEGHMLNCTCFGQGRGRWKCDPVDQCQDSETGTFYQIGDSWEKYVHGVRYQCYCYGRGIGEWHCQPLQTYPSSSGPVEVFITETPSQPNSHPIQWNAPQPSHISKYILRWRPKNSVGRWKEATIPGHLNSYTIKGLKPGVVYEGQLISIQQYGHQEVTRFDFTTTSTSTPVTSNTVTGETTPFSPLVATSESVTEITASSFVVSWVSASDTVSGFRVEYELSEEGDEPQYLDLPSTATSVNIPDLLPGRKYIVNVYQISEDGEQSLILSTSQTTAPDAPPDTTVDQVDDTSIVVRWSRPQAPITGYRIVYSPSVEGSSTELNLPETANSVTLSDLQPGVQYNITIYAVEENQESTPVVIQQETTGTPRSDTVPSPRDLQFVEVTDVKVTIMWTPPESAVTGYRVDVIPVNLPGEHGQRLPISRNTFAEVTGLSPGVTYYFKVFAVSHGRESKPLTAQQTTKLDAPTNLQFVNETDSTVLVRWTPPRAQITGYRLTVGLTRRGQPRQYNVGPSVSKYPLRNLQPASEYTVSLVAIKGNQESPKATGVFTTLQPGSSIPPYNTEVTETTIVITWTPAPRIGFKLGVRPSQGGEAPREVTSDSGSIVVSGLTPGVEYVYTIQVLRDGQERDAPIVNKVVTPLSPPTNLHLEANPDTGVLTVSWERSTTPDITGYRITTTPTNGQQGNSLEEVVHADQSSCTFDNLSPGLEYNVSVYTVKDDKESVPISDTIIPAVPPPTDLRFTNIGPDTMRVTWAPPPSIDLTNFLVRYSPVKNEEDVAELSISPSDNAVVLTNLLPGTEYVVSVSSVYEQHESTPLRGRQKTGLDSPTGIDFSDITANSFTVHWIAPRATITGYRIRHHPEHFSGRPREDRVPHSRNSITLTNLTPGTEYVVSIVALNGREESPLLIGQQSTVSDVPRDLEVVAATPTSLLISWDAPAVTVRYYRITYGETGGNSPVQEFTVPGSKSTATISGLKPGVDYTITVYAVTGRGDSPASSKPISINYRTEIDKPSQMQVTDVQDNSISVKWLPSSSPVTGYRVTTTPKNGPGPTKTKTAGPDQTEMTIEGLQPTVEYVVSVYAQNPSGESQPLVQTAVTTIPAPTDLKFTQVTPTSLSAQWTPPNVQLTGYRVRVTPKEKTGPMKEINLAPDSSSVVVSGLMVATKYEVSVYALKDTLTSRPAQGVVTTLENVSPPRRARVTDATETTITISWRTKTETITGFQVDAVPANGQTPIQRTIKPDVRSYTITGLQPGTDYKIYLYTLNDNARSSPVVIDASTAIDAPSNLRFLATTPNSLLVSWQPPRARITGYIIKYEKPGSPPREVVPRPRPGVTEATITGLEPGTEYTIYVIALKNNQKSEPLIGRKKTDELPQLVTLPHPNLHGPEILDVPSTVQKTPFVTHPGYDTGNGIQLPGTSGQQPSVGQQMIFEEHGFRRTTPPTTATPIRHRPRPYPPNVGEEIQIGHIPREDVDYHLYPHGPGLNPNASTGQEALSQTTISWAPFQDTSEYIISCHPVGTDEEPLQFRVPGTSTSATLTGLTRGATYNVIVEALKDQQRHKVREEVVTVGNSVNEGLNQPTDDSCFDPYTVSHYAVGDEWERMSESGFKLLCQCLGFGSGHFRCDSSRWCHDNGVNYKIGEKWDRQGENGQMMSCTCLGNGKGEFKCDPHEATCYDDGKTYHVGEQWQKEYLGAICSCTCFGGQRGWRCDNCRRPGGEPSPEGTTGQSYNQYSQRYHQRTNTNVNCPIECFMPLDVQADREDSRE
Kd [1] [nM],Kd (human tenascin C (human)) [nM],Kd [2] [nM],release from a fibrin matrix (fraction of the protein dose released) (fibrin matrix) [%],Substance
7.9,18.1,1.9,–,AREG126-138/PDGF-BB (from UniProt P31240 80-190)
–,–,–,> 60,PIGF-1 (from UniProt P49763 19-149) (ligand)
